Where no end group is shown, it is not given here.

Experiment [1] addresses T1, BSA-conjugated human CADM1 peptide (human, also: conjugated to BSA via added C-terminal Cys).
T1 construct: also called human peptide; rhCADM1 peptide
T1 peptide: DSRAGEEGSIRAVDHC(BSA)
Description: ELISA, scFv titrated on coated BSA-conjugated human CADM1 peptide, anti-HA-HRP, OD450. (In general: In an ELISA, binding on a coated surface is turned into a signal by an enzyme label.)

The target in experiment [2] is T2, BSA-conjugated mouse CADM1 peptide (mouse, also: conjugated to BSA via added C-terminal Cys).
T2 construct: also called mouse peptide
T2 peptide: DSRAGEEGTIGAVDHC(BSA)
Description: ELISA, scFv titrated on coated BSA-conjugated mouse CADM1 peptide, anti-HA-HRP, OD450.

Experiment [3] concerns the target T3, CADM1 peptide expressed on SBC-5 small cell lung cancer cells (CADM1-SBC-5); peptide - transmembrane domain - … (human).
T3 construct: also called CADM1 펩타이드를 발현하는 SBC-5 세포
T3 sequence (Q9BY67 whole entry, looked up): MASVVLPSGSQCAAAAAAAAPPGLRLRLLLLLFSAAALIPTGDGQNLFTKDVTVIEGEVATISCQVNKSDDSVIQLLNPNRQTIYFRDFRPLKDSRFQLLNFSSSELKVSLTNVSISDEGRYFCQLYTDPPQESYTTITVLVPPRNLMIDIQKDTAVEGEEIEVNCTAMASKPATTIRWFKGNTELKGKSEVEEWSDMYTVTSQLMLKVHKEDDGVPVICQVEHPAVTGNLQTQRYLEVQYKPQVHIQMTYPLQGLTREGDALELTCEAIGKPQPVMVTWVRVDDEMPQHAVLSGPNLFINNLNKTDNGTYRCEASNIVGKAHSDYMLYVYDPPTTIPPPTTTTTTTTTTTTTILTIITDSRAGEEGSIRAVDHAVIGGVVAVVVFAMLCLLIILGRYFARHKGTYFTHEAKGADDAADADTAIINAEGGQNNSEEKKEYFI
The experiment can be described thus: flow cytometry, 1 ug scFv on 5x10^5 SBC-5 cells expressing the CADM1 peptide, PE anti-HA.

Experiment [4] has as its target T4, comparison structure: the same structure without the CADM1 peptide (Myc tag, hinge, transmembrane domain, …).
T4 construct: also called 비교군 구조; CADM1 펩타이드를 포함하지 않는 세포
Description: flow cytometry, 1 ug scFv on 5x10^5 cells with the structure without the CADM1 peptide, PE anti-HA.

B1: 4A8 (scFv, V domains shown)
VH: AVTLDESGGGLQTPGGGLSLVCKASGFTFSSYAMNWVRQAPGKGLEFVAQITSSGRYTYYGTAVKGRATISRDNGQSTVRLQLNNLRAEDSGTYYCAKDAAAGYYDGATAGDIDAWGHGTEVIVSS
VL: LTQPSSVSANLGGTVKITCSGGSGSNHYGWYQQKSPGSAPVTVIYSNNKRPSNIPSRFSGSKFGSTATLTITGVQADDEAVYYCGGYDSSAGYIGPFGAGTTLTVL
notes: Tested as purified scFv with His tag and HA tag; chicken immune library
In the case of B1, the Bmax is 4.22 in experiment [1] and 4.43 in experiment [2]. The results for the Kd in experiment [1] and in experiment [2] were 16.4 nM and 70.2 nM, respectively. In addition, the “결합력 (%)” value in experiment [3] was found to be 10.1%; in experiment [4], 0.9%.

B2: RH6 (scFv, V domains shown)
VH: AVTLDESGGGLQTPGGGLSLVCKGSGFTFSSYAMNWVRQAPGKGLEFVAQITSSGRYTYYGTAVKGRATISRDNGQSTVRLQLNNLRAEDSGTYYCAKDAAAGYYDGATAGDIDAWGHGTEVIVSS
VL: VTQPSSVSANPGESVKITCSGGSYSYGWYQQKSPGSAPVTVIYSNNQRPSNIPSRFSGSTSGSTSTLTITGVQADDEAVYFCGTFDSSTNAAFGAGTTLTVL
notes: as for B1
Consider B2, for which the values for the Bmax in experiment [1] and in experiment [2] were 4.16 and 2.4, respectively. Moreover, the figures for the dissociation constant (Kd) in experiment [1] and in experiment [2] were 5.58 nM and 124 nM, respectively. Besides, the “결합력 (%)” value was 10% in experiment [3] and 0.7% in experiment [4].

B3: RB11 (scFv, V domains shown)
VH: AVTLDESGGGLQTPGGGLSLVCKGSGFTFSSYAMNWVRQAPGKGLEFVAQITSSGRYTYYGTAVKGRATISRDNGQSTVRLQLNNLRAEDSGTYYCAKDAAAGYYDGATAGDIDAWGHGTEVIVSS
VL: LTQPSSVSANPGGTVKITCSGGSGSYGWFQQKAPGSAPVTLIYANTNRPSDIPSRFSGSKSGSTATLTITGVQVEDEAVYYCGSTDSSYVSIFGAGTTLTVL
notes: as for B1
As to B3, the figures for the Bmax in experiment [1] and in experiment [2] were 4.01 and 4, respectively. The results for the Kd in experiment [1] and in experiment [2] were 0.649 nM and 2.72 nM, respectively. Besides, the “결합력 (%)” value is 38.4% in experiment [3] and 1.2% in experiment [4].

By Kd is commonly meant the constant that tells how readily two partners part at equilibrium.

Values taken from KR20220167207A (dated 2022).
